T1: P3028 (VFDEFKPLVEEPQNLIK, SEQ ID NO: 185), His-tagged (human)
T1 construct: Synthetic fragment of human serum albumin (positions 397-413); used in solution as His-tagged peptide PGE73; also called PGE73; not shown: His-tag
T1 peptide: VFDEFKPLVEEPQNLIK

B1: KKLDTFFIKLSLFTER (SEQ ID NO: 416) (peptide)
peptide: KKLDTFFIKLSLFTER
B2: KKLDTFFVKLDLFTER (SEQ ID NO: 474) (peptide)
peptide: KKLDTFFVKLDLFTER
B3: KKLDTFFVKLHLFTER (SEQ ID NO: 345) (peptide)
peptide: KKLDTFFVKLHLFTER
B4: KKLDTFFVKLRLFTER (SEQ ID NO: 464) (peptide)
peptide: KKLDTFFVKLRLFTER
B5: KKLDTFFVKLNLFTER (SEQ ID NO: 347) (peptide)
peptide: KKLDTFFVKLNLFTER
B6: KKLDTFFVKKSLFTER (SEQ ID NO: 506) (peptide)
peptide: KKLDTFFVKKSLFTER
B7: KKLDTFFVKLPLFTER (SEQ ID NO: 470) (peptide)
peptide: KKLDTFFVKLPLFTER
B8: KKLDTFFLKLSLFTER (SEQ ID NO: 328) (peptide)
peptide: KKLDTFFLKLSLFTER
B9: KKLDTFFVKHSLFTER (SEQ ID NO: 502) (peptide)
peptide: KKLDTFFVKHSLFTER
B10: KKLDTFFTKLSLFTER (SEQ ID NO: 496) (peptide)
peptide: KKLDTFFTKLSLFTER
B11: KKLDTFFVKCSLFTER (SEQ ID NO: 508) (peptide)
peptide: KKLDTFFVKCSLFTER
B12: KKLDTFFVKGSLFTER (SEQ ID NO: 334) (peptide)
peptide: KKLDTFFVKGSLFTER
B13: KKLDTFFVKISLFTER (SEQ ID NO: 335) (peptide)
peptide: KKLDTFFVKISLFTER
B14: KKLDTFFQKLSLFTER (SEQ ID NO: 513) (peptide)
peptide: KKLDTFFQKLSLFTER
B15: KKLDTFFVKLGLFTER (SEQ ID NO: 99) (peptide)
peptide: KKLDTFFVKLGLFTER
B16: KKLDTFFVKLCLFTER (SEQ ID NO: 457) (peptide)
peptide: KKLDTFFVKLCLFTER
B17: KKLDTFFVHLSLFTER (SEQ ID NO: 488) (peptide)
peptide: KKLDTFFVHLSLFTER
B18: KKLDTFFVELSLFTER (SEQ ID NO: 527) (peptide)
peptide: KKLDTFFVELSLFTER
B19: KKLDTFFVKLILFTER (SEQ ID NO: 505) (peptide)
peptide: KKLDTFFVKLILFTER
B20: KKLDTFFVKLFLFTER (SEQ ID NO: 522) (peptide)
peptide: KKLDTFFVKLFLFTER
B21: KKLDTFFVKFSLFTER (SEQ ID NO: 333) (peptide)
peptide: KKLDTFFVKFSLFTER
B22: KKLDTFFVKLKLFTER (SEQ ID NO: 473) (peptide)
peptide: KKLDTFFVKLKLFTER
B23: KKLDTFFVKLQLFTER (SEQ ID NO: 348) (peptide)
peptide: KKLDTFFVKLQLFTER
B24: KKLDTFFVKLELFTER (SEQ ID NO: 532) (peptide)
peptide: KKLDTFFVKLELFTER
B25: KKLDTFFVKLALFTER (SEQ ID NO: 477) (peptide)
peptide: KKLDTFFVKLALFTER
B26: KKLDTFFRKLSLFTER (SEQ ID NO: 330) (peptide)
peptide: KKLDTFFRKLSLFTER
B27: KKLDTFFVKASLFTER (SEQ ID NO: 332) (peptide)
peptide: KKLDTFFVKASLFTER
B28: KKLDTFFPKLSLFTER (SEQ ID NO: 329) (peptide)
peptide: KKLDTFFPKLSLFTER
notes: also called 32251
B29: KKLDTFFVKLMLFTER (SEQ ID NO: 346) (peptide)
peptide: KKLDTFFVKLMLFTER

Target: T1, P3028 (VFDEFKPLVEEPQNLIK, SEQ ID NO: …)
Assay: PEPSCAN ELISA; peptide on chip, His-P3028 added;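 also: peroxidase color development with ABTS and H2O2 substrate, OD405 imaged by CCD camera with image processing and taken as raw values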

| Binder | RAMPO Score |
| --- | --- |
| B1 | 401 rampo units |
| B2 | 322 rampo units |
| B3 | 535 rampo units |
| B4 | 333 rampo units |
| B5 | 451 rampo units |
| B6 | 285 rampo units |
| B7 | 328 rampo units |
| B8 | 411 rampo units |
| B9 | 293 rampo units |
| B10 | 298 rampo units |
| B11 | 283 rampo units |
| B12 | 495 rampo units |
| B13 | 415 rampo units |
| B14 | 271 rampo units |
| B15 | 288 rampo units |
| B16 | 341 rampo units |
| B17 | 306 rampo units |
| B18 | 240 rampo units |
| B19 | 289 rampo units |
| B20 | 250 rampo units |
| B21 | 403 rampo units |
| B22 | 323 rampo units |
| B23 | 768 rampo units |
| B24 | 234 rampo units |
| B25 | 318 rampo units |
| B26 | 365 rampo units |
| B27 | 426 rampo units |
| B28 | 456 rampo units |
| B29 | 744 rampo units |

From patent US20180177842A1 (CANIMGUIDE THERAPEUTICS, published 2018)
